Residue numbers refer to the chain shown, from its start. Names and notes keep the numbering of the source. Where two headings read alike, the source gives them in different places.
Legend:
[1] = target: ALX4 homeodomain protein (amino acids 209-274) (human) (UniProt Q9H161); test: native gel or EMSA
[2] = target: PITX3 homeodomain protein (66 amino acid region) (human); test: native gel or EMSA
[3] = target: PHOX2B Q46R homeodomain protein (human); test: native gel or EMSA
[4] = target: PHOX2B Q46K homeodomain protein (human); test: native gel or EMSA
[5] = target: OTP homeodomain protein (amino acids 99-164) (human) (UniProt Q5XKR4); test: native gel or EMSA
CRX HD [6] = target: T1, CRX HD (Homo sapiens, UniProt O43186 34-99); test: EMSA
CRX HD E4N;K50Q [7] = target: T2, CRX HD E4N;K50Q (Homo sapiens, UniProt O43186 34-99, E42N;K88Q); test: EMSA
CRX HD K50Q [8] = target: T3, CRX HD K50Q (Homo sapiens, UniProt O43186 34-99, K88Q); test: EMSA
CRX HD E4K = CRX HD E4K (Homo sapiens, UniProt O43186 34-99, E42K); test: EMSA
CRX HD R3Q = CRX HD R3Q (Homo sapiens, UniProt O43186 34-99, R41Q); test: EMSA
CRX HD R2Q [9] = target: T4, CRX HD R2Q (Homo sapiens, UniProt O43186 34-99, R40Q); test: EMSA
CRX HD R2Q [10] = target: T4, CRX HD R2Q; test: EMSA; remark: listed apart in the source
CRX HD E4N = CRX HD E4N (Homo sapiens, UniProt O43186 34-99, E42N); test: EMSA
CRX HD E4N;K50Q [11] = target: T2, CRX HD E4N;K50Q; test: EMSA; remark: listed apart in the source
CRX HD [12] = target: T1, CRX HD; test: EMSA; remark: listed apart in the source
CRX HD K50Q [13] = target: T3, CRX HD K50Q; test: EMSA; remark: listed apart in the source
PHOX2B HD R44G = PHOX2B HD R44G (Homo sapiens, UniProt Q99453 94-158, R141G); test: EMSA
ARX HD P26L = ARX HD P26L (Mus musculus, UniProt O35085 326-390, P355L); test: EMSA
ARX HD P26L, sequence (O35085 326-390 P355L): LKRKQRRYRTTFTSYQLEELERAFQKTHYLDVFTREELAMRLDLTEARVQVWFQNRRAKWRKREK

T2 sequence (O43186 34-99 E42N/K88Q): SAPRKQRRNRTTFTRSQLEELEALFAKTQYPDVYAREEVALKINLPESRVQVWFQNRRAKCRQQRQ
T3 sequence (O43186 34-99 K88Q): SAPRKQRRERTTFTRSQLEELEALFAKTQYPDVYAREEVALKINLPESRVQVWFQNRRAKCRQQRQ
T4 sequence (O43186 34-99 R40Q): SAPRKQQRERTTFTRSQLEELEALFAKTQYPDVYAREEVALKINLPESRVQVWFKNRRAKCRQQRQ
T1 sequence (O43186 34-99): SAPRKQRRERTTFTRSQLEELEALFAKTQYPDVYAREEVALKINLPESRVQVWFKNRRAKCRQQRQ
CRX HD R3Q, sequence (O43186 34-99 R41Q): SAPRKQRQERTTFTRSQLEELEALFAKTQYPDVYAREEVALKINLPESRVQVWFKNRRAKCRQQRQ
CRX HD E4K, sequence (O43186 34-99 E42K): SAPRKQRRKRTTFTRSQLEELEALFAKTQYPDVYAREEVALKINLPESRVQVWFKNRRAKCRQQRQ
CRX HD E4N, sequence (O43186 34-99 E42N): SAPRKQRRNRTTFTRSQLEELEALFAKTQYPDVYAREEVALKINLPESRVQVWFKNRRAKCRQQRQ
PHOX2B HD R44G, sequence (Q99453 94-158 R141G): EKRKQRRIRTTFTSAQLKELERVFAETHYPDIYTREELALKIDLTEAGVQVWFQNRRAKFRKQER

**Q.** Which Tau with P4Q DNA [1] does the source give for “ALX4 homeodomain protein (amino acids 209-274) (from UniProt Q9H161 209-274) (domain or fragment)” here?
**A.** Its Tau with P4Q DNA is 0.792.

**Q.** For “PITX3 homeodomain protein (66 amino acid region) (domain or fragment)”, which Tau with P3K DNA [2] is on record?
**A.** The Tau with P3K DNA was 0.157.

**Q.** For “PHOX2B Q46R homeodomain protein (domain or fragment)”, which Tau with P3Q DNA [3] is on record?
**A.** Its Tau with P3Q DNA is 1.27.

**Q.** With “PHOX2B Q46K homeodomain protein (domain or fragment)” as the molecule, how does the Tau with P3Q DNA [4] read?
**A.** The Tau with P3Q DNA was 0.9.

**Q.** “OTP homeodomain protein (amino acids 99-164) (from UniProt Q5XKR4 99-164) (domain or fragment)” was tested. Which Tau with P4Q DNA [5] did it give?
**A.** Its Tau with P4Q DNA is 0.29.

B1: P4K (dsDNA)
DNA 1: TGTGTCTTAATCCGGATTAACGCACTTGATAGTGCGGGCGTGGCT
DNA 2: AGCCACGCCCGCACTATCAAGTGCGTTAATCCGGATTAAGACACA
**Q.** Does B1 bind (CRX HD [6])?
**A.** Result: binds

B2: Q50 monomer (TAATTA) (dsDNA)
DNA 1: CGGGCTAATTAGGCCTAGTGCGGGCGTGGCT
DNA 2: AGCCACGCCCGCACTAGGCCTAATTAGCCCG
**Q.** Does B2 bind (CRX HD E4N;K50Q [7])?
**A.** Result: binds

**Q.** Does B2 bind (CRX HD K50Q [8])?
**A.** Result: binds

B3: K50 monomer (TAATCC) (dsDNA)
DNA 1: B2 DNA 1 with T10C, A11C
DNA 2: B2 DNA 2 with T21G, A22G
**Q.** Does B3 bind (CRX HD E4K)?
**A.** Result: binds

**Q.** Does B3 bind (CRX HD R3Q)?
**A.** Result: binds

**Q.** Does B3 bind (CRX HD R2Q [9])?
**A.** Result: binds

B4: P3K (dsDNA)
DNA 1: TGTGTCTTAATCCGATTAACGCACTTGATAGTGCGGGCGTGGCT
DNA 2: AGCCACGCCCGCACTATCAAGTGCGTTAATCGGATTAAGACACA
**Q.** What does the source list for B4?
**A.** binding result (CRX HD R2Q [10]): binds; binding result (CRX HD E4N): binds; binding signal (CRX HD E4N;K50Q [11]): 395 ± 90.1 Tau; binding signal (CRX HD [12]): 8.94 ± 1.78 Tau; binding signal (CRX HD K50Q [13]): 340 ± 161 Tau

B5: P3Q (dsDNA)
DNA 1: B4 DNA 1 with C12T, C13A
DNA 2: B4 DNA 2 with G32T, G33A
**Q.** Does B5 bind (PHOX2B HD R44G)?
**A.** Result: no binding

**Q.** What about the binding signal (ARX HD P26L) of the same molecule?
**A.** The binding signal was ~10 fold decrease in Tau vs WT.

**Q.** What about the binding signal (CRX HD E4N;K50Q [11]) of the same molecule?
**A.** Its binding signal is 112 ± 12.1 Tau.

**Q.** What about the binding signal (CRX HD K50Q [13]) of the same molecule?
**A.** The binding signal was 54.6 ± 2.72 Tau.
